Experimental data: publication PMC12121391, “Crystal structure of ATP-dependent DNA ligase from Rhizobium phage vB_RleM_P10VF”

Target: T1, P10VF-Lig (ATP-dependent DNA ligase) (Rhizobium phage vB_RleM_P10VF, UniProt A0A076YM08)
T1 sequence: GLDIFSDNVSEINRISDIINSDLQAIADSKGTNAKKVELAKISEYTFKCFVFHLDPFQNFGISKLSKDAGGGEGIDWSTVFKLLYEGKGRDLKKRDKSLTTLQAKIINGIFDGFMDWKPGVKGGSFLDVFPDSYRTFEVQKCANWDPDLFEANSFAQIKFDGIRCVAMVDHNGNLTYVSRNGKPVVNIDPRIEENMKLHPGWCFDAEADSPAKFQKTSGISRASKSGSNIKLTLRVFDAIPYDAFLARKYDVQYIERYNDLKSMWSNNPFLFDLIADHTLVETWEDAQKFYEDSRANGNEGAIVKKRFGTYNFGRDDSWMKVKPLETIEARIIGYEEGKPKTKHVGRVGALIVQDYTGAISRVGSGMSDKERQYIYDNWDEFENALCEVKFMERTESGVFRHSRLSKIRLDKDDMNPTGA
Test: X-ray crystallography; AMP transferred to the DNA 5'-phosphate (step 2 intermediate); EDTA 5 mM; 2.2 Å; Crystallization: protein in 50 mM Tris pH 7.5, 200 mM NaCl, 1 mM beta-mercaptoethanol; 1.2 eq nicked duplex, 5 mM EDTA, 30 min on ice; 24% PEG 4000, 100 mM bis-Tris pH 5.5, 4 °C (278 K in Table 2)
Conditions: protein: recombinant, SeMet-substituted, 21 bp, blunt ends

B1: nicked DNA duplex (21 nt complement, 10 + 11 nt nicked strand) (dsDNA)
DNA 1: TTCCGACAGTGGGGTCGCAAT
DNA 2: ATTGCGACCC
DNA 3: CACTATCGGAA
modifications: 2'-O-methyl one nucleotide upstream of the 3' terminus at the nick (strand 2); 5'-phosphate at the nick (strand 3), adenylated (AMP) in the crystal
**Q.** Does B1 bind?
**A.** binds
